This assay deals with Gal4 DBD-COUP-TF fusion protein (yeast) (UniProt P04386). Kind of assay: cell-based or functional assay.

As to “PGC-1 (expressed from pCMV-PGC-1 in transfected cells) (from UniProt O70343 1-797)”, the PGC-1 mediated activation of mutant PEPCK promoter-luciferase constructs (% of that achieved by HNF-4α) lay in the range of 20 to 30.

Values taken from patent publication US20030045470A1.
